# Results taken from patent US20220144890.
# T1: H2 α-helical peptide derived from GBRL2 (GABARAPL2 alpha-helix 2 domain)
# T1 chain: VAQFMWIIRKR
# Key:
# [1] = molecular target: T1, H2 α-helical peptide derived from GBRL2 …
# [2] = molecular target: H2 peptide derived from MAP1LC3C
# [3] = molecular target: H2 peptide derived from MAP1LC3B
# [4] = molecular target: H2 peptide derived from GBR
protein,measurement,setting,value
recombinant ATG4B (protein) MDAATLTYDTLRFAEFEDFPETSEPVWILGRKYSIFTEKDEILSDVASRLWFTYRKNFPAIGGTGPTSDTGWGCMLRCGQMIFAQALVCRHLGRDWRWTQRKRQPDSYFSVLNAFIDRKDSYYSIHQIAQMGVGEGKSIGQWYGPNTVAQVLKKLAVFDTWSSLAVHIAMDNTVVMEEIRRLCRTSVPCAGATAFPADSDRHCNGFPAGAEVTNRPSPWRPLVLLIPLRLGLTDINEAYVETLKHCFMMPQSLGVIGGKPNSAHYFIGYVGEELIYLDPHTTQPAVEPTDGCFIPDESFHCQHPPCRMSIAELDPSIAVGFFCKTEDDFNDWCQQVKKLSLLGGALPMFELVELQPSHLACPDVLNLSLDSSDVERLERFFDSEDEDFEILSL,ATG4B cleavage of chimeric Myc-GBRL2-S-tag substrate (blot),[1],"inhibited ATG4B cleavage activity in dose dependent manner, while H2 peptides derived from MAP1LC3B and GBRL2 had the strongest inhibition on ATG4B"
same,ATG4B cleavage of chimeric Myc-GBRL2-S-tag substrate (blot),[2],inhibited ATG4B cleavage activity in dose dependent manner
same,ATG4B cleavage of chimeric Myc-GBRL2-S-tag substrate (blot),[3],"inhibited ATG4B cleavage activity in dose dependent manner, while H2 peptides derived from MAP1LC3B and GBRL2 had the strongest inhibition on ATG4B"
same,ATG4B cleavage of chimeric Myc-GBRL2-S-tag substrate (blot),[4],inhibited ATG4B cleavage activity in dose dependent manner
